The record followed here is article PMC6251370.

Broadly, the Kd is a measure of binding affinity in units of concentration.

The assay deals with recombinant N-terminal SH3 domain (SH3N) of CRKL with a C-terminal hexahistidine tag (human). The assay is described as follows: dynamic mass redistribution.

As to QPPPVPAKKS [peptide corresponding to the second PXXPXK motif of SASH1 (aa982–991)], the Kd was found to be 7.38 µM.
